Results published in PMC9482650, “Quantitative fragmentomics allow affinity mapping of interactomes” (Nature Communications, 2022).

These binders were tested against T1, HTRA3, P83110 (assay: holdup assay). Settings: plain residues with an end cap or a label only (N-terminal biotin on a linker: ado-ado).
T1 sequence (P83110 354-453, limits assumed, looked up): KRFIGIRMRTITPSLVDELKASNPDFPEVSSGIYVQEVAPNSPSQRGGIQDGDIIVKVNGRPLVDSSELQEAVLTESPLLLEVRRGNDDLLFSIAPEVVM
Parameters: key: below the threshold = too weak to quantify, mostly under pKd 3.1 to 4
With ARGPPRESEV [FAM110D, Q8TAY7] the pKd was “below the threshold”.

What follows are binders tested against GRIP2_6, Q9C0E4 (assay: holdup assay). Settings: plain residues with an end cap or a label only (N-terminal biotin on a linker: ado-ado).
Sequence of GRIP2_6, Q9C0E4 (Q9C0E4 648-740): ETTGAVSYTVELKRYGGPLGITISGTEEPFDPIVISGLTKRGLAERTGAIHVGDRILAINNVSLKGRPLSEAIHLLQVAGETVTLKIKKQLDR
Parameters: key: below the threshold = too weak to quantify, mostly under pKd 3.1 to 4
In the case of ARGPPRESEV [FAM110D, Q8TAY7], the pKd is reported as “below the threshold”.

Each binder was assayed against T2, LRRC7, Q96NW7 (assay: holdup assay). Settings: plain residues with an end cap or a label only (N-terminal biotin on a linker: ado-ado).
T2 sequence (Q96NW7 1440-1537, limits assumed, looked up): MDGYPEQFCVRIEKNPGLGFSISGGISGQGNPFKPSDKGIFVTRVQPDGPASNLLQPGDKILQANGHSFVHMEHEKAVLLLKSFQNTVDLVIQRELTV
Parameters: key: below the threshold = too weak to quantify, mostly under pKd 3.1 to 4
A pKd of 4.15 was found for ARGPPRESEV [FAM110D, Q8TAY7] in this work.

What follows are binders tested against MAGI3_2, Q5TCQ9 (assay: holdup assay). Settings: plain residues with an end cap or a label only (N-terminal biotin on a linker: ado-ado).
Sequence of MAGI3_2, Q5TCQ9 (Q5TCQ9 398-503): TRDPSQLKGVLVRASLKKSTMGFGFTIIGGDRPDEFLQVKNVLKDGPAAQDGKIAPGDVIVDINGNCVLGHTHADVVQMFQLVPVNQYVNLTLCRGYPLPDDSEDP
Parameters: key: below the threshold = too weak to quantify, mostly under pKd 3.1 to 4
A pKd of 5.03 was found for ARGPPRESEV [FAM110D, Q8TAY7] in this work.

These binders were tested against Inadl_10, Q8NI35 (assay: holdup assay). Settings: plain residues with an end cap or a label only (N-terminal biotin on a linker: ado-ado).
Sequence of Inadl_10, Q8NI35 (Q8NI35 1673-1763): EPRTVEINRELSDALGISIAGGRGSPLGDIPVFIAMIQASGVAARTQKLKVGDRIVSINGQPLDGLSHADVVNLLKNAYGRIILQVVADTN
Parameters: key: below the threshold = too weak to quantify, mostly under pKd 3.1 to 4
With ARGPPRESEV [FAM110D, Q8TAY7] the pKd was “below the threshold”.

These binders were tested against T3, NHERF3_3, Q5T2W1 (assay: holdup assay). Settings: plain residues with an end cap or a label only (N-terminal biotin on a linker: ado-ado).
T3 sequence (Q5T2W1 238-333, limits assumed, looked up): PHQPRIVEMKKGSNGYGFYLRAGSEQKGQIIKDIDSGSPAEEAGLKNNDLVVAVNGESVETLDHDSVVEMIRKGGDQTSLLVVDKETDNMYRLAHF
Parameters: key: below the threshold = too weak to quantify, mostly under pKd 3.1 to 4
With ARGPPRESEV [FAM110D, Q8TAY7] the pKd was “below the threshold”.

The binders below were run against T4, SNTA1, Q13424 (assay: holdup assay). Settings: plain residues with an end cap or a label only (N-terminal biotin on a linker: ado-ado).
T4 sequence (Q13424 82-180, limits assumed, looked up): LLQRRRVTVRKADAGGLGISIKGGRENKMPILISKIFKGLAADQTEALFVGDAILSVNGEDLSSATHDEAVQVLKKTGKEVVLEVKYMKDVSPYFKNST
Parameters: key: below the threshold = too weak to quantify, mostly under pKd 3.1 to 4
A pKd of 5.27 was found for ARGPPRESEV [FAM110D, Q8TAY7] in this work.

These binders were tested against T5, RHPN1, Q8TCX5 (assay: holdup assay). Settings: plain residues with an end cap or a label only (N-terminal biotin on a linker: ado-ado).
T5 sequence (Q8TCX5 508-602, limits assumed, looked up): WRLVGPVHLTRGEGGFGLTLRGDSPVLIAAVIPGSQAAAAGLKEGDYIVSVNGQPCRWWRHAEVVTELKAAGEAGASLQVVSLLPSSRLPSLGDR
Parameters: key: below the threshold = too weak to quantify, mostly under pKd 3.1 to 4
A pKd of 3.76 was found for ARGPPRESEV [FAM110D, Q8TAY7] in this work.

The binders below were run against T6, GRIP1_7, Q9Y3R0 (assay: holdup assay). Settings: plain residues with an end cap or a label only (N-terminal biotin on a linker: ado-ado).
T6 sequence (Q9Y3R0 999-1096, limits assumed, looked up): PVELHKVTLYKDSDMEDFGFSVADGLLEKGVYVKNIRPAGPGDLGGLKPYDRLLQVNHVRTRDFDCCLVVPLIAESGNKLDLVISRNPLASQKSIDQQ
Parameters: key: below the threshold = too weak to quantify, mostly under pKd 3.1 to 4
With ARGPPRESEV [FAM110D, Q8TAY7] the pKd was “below the threshold”.

What follows are binders tested against T7, CARD11, Q9BXL7 (assay: holdup assay). Settings: plain residues with an end cap or a label only (N-terminal biotin on a linker: ado-ado).
T7 sequence (Q9BXL7 662-765, limits assumed, looked up): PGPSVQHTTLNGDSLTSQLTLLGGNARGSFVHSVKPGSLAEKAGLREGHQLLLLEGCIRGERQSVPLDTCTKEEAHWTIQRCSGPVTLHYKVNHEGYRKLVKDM
Parameters: key: below the threshold = too weak to quantify, mostly under pKd 3.1 to 4
In the case of ARGPPRESEV [FAM110D, Q8TAY7], the pKd is reported as “below the threshold”.

These binders were tested against DLG1_3, Q12959 (assay: holdup assay). Settings: plain residues with an end cap or a label only (N-terminal biotin on a linker: ado-ado).
Sequence of DLG1_3, Q12959 (Q12959 457-571): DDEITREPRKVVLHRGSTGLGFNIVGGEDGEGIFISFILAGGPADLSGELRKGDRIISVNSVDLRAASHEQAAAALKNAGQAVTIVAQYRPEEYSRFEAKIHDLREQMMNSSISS
Parameters: key: below the threshold = too weak to quantify, mostly under pKd 3.1 to 4
A pKd of 4.36 was found for ARGPPRESEV [FAM110D, Q8TAY7] in this work.

Each binder was assayed against T8, SNTB1, Q13884 (assay: holdup assay). Settings: plain residues with an end cap or a label only (N-terminal biotin on a linker: ado-ado).
T8 sequence (Q13884 107-205, limits assumed, looked up): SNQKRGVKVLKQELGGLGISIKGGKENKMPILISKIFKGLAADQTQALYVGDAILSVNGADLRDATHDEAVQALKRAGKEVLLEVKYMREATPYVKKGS
Parameters: key: below the threshold = too weak to quantify, mostly under pKd 3.1 to 4
A pKd of 5.12 was found for ARGPPRESEV [FAM110D, Q8TAY7] in this work.

What follows are binders tested against GRASP, Q7Z6J2 (assay: holdup assay). Settings: plain residues with an end cap or a label only (N-terminal biotin on a linker: ado-ado).
Sequence of GRASP, Q7Z6J2 (Q7Z6J2 96-193): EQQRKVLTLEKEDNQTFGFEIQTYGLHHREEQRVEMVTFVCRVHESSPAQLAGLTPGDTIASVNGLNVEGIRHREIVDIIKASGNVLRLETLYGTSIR
Parameters: key: below the threshold = too weak to quantify, mostly under pKd 3.1 to 4
In the case of ARGPPRESEV [FAM110D, Q8TAY7], the pKd is reported as “below the threshold”.

The binders below were run against Inadl_6, Q8NI35 (assay: holdup assay). Settings: plain residues with an end cap or a label only (N-terminal biotin on a linker: ado-ado).
Sequence of Inadl_6, Q8NI35 (Q8NI35 1058-1167): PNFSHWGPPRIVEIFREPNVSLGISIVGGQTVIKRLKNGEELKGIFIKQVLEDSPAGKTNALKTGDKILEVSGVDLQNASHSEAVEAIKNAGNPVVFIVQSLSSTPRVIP
Parameters: key: below the threshold = too weak to quantify, mostly under pKd 3.1 to 4
In the case of ARGPPRESEV [FAM110D, Q8TAY7], the pKd is reported as “below the threshold”.

The binders below were run against IL16_3, Q14005 (assay: holdup assay). Settings: plain residues with an end cap or a label only (N-terminal biotin on a linker: ado-ado).
Sequence of IL16_3, Q14005 (Q14005 1107-1207): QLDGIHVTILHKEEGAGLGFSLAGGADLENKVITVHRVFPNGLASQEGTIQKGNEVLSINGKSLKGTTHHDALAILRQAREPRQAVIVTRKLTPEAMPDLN
Parameters: key: below the threshold = too weak to quantify, mostly under pKd 3.1 to 4
For ARGPPRESEV [FAM110D, Q8TAY7], the pKd was “below the threshold”.

What follows are binders tested against GOPC, Q9HD26 (assay: holdup assay). Settings: plain residues with an end cap or a label only (N-terminal biotin on a linker: ado-ado).
Parameters: key: below the threshold = too weak to quantify, mostly under pKd 3.1 to 4
A pKd of 3.51 was found for ARGPPRESEV [FAM110D, Q8TAY7] in this work.

The binders below were run against Inadl_2, Q8NI35 (assay: holdup assay). Settings: plain residues with an end cap or a label only (N-terminal biotin on a linker: ado-ado).
Sequence of Inadl_2, Q8NI35 (Q8NI35 238-335): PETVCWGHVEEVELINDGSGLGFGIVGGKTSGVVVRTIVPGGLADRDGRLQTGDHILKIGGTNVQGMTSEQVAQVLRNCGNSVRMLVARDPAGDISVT
Parameters: key: below the threshold = too weak to quantify, mostly under pKd 3.1 to 4
ARGPPRESEV [FAM110D, Q8TAY7] was tested, and the pKd was “below the threshold”.

Each binder was assayed against FRMPD2_3, Q68DX3 (assay: holdup assay). Settings: plain residues with an end cap or a label only (N-terminal biotin on a linker: ado-ado).
Sequence of FRMPD2_3, Q68DX3 (Q68DX3 1073-1166): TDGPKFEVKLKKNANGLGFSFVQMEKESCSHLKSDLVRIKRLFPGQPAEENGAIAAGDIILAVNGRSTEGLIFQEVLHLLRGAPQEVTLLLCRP
Parameters: key: below the threshold = too weak to quantify, mostly under pKd 3.1 to 4
In the case of ARGPPRESEV [FAM110D, Q8TAY7], the pKd is reported as “below the threshold”.

These binders were tested against GORASP1, Q9BQQ3 (assay: holdup assay). Settings: plain residues with an end cap or a label only (N-terminal biotin on a linker: ado-ado).
Sequence of GORASP1, Q9BQQ3 (Q9BQQ3 1-208): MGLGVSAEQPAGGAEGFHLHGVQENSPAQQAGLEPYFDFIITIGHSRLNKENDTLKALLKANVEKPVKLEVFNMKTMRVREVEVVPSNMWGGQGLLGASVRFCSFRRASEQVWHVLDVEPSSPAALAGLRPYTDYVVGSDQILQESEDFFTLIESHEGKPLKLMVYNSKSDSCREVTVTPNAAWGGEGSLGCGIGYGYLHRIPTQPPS
Parameters: key: below the threshold = too weak to quantify, mostly under pKd 3.1 to 4
ARGPPRESEV [FAM110D, Q8TAY7] was tested, and the pKd was “below the threshold”.

Each binder was assayed against T9, GRIP1_4, Q9Y3R0 (assay: holdup assay). Settings: plain residues with an end cap or a label only (N-terminal biotin on a linker: ado-ado).
T9 sequence (Q9Y3R0 467-571, limits assumed, looked up): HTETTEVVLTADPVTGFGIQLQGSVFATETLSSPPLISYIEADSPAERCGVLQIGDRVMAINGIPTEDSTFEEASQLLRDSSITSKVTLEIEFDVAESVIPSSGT
Parameters: key: below the threshold = too weak to quantify, mostly under pKd 3.1 to 4
ARGPPRESEV [FAM110D, Q8TAY7] was tested, and the pKd was “below the threshold”.

Each binder was assayed against SNX27, Q96L92 (assay: holdup assay). Settings: plain residues with an end cap or a label only (N-terminal biotin on a linker: ado-ado).
Parameters: key: below the threshold = too weak to quantify, mostly under pKd 3.1 to 4
A pKd of 4.65 was found for ARGPPRESEV [FAM110D, Q8TAY7] in this work.

Each binder was assayed against GRIP2_4, Q9C0E4 (assay: holdup assay). Settings: plain residues with an end cap or a label only (N-terminal biotin on a linker: ado-ado).
Sequence of GRIP2_4, Q9C0E4 (Q9C0E4 446-548): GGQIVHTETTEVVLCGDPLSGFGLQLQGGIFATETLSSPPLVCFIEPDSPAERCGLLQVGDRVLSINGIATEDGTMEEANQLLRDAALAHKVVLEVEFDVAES
Parameters: key: below the threshold = too weak to quantify, mostly under pKd 3.1 to 4
In the case of ARGPPRESEV [FAM110D, Q8TAY7], the pKd is reported as “below the threshold”.

The binders below were run against SCRIB_1, Q14160 (assay: holdup assay). Settings: plain residues with an end cap or a label only (N-terminal biotin on a linker: ado-ado).
Sequence of SCRIB_1, Q14160 (Q14160 718-814): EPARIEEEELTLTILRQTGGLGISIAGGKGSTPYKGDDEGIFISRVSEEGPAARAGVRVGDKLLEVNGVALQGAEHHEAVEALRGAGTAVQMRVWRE
Parameters: key: below the threshold = too weak to quantify, mostly under pKd 3.1 to 4
A pKd of 4.88 was found for ARGPPRESEV [FAM110D, Q8TAY7] in this work.

What follows are binders tested against T10, TIAM2, Q8IVF5 (assay: holdup assay). Settings: plain residues with an end cap or a label only (N-terminal biotin on a linker: ado-ado).
T10 sequence (Q8IVF5 885-986, limits assumed, looked up): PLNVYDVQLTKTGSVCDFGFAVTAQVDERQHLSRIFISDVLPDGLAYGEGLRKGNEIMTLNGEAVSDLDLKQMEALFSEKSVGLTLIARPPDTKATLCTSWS
Parameters: key: below the threshold = too weak to quantify, mostly under pKd 3.1 to 4
With ARGPPRESEV [FAM110D, Q8TAY7] the pKd was “below the threshold”.

Each binder was assayed against T11, DFNB31_3, Q9P202 (assay: holdup assay). Settings: plain residues with an end cap or a label only (N-terminal biotin on a linker: ado-ado).
T11 sequence (Q9P202 811-907, limits assumed, looked up): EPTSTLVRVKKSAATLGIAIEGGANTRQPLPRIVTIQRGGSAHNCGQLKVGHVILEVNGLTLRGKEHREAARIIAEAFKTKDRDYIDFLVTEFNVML
Parameters: key: below the threshold = too weak to quantify, mostly under pKd 3.1 to 4
For ARGPPRESEV [FAM110D, Q8TAY7], the pKd was “below the threshold”.

Each binder was assayed against DLG2_3, Q15700 (assay: holdup assay). Settings: plain residues with an end cap or a label only (N-terminal biotin on a linker: ado-ado).
Parameters: key: below the threshold = too weak to quantify, mostly under pKd 3.1 to 4
A pKd of 4.54 was found for ARGPPRESEV [FAM110D, Q8TAY7] in this work.
